Values of other authors in publication PMC8695629.

Legend:
[1] = molecular target: DOT1L 10-mer peptide (Homo sapiens) (UniProt Q8TEK3)
CBX8 (Homo sapiens) = CBX8 (Homo sapiens) (UniProt Q9HC52)
BCOR (Homo sapiens) = BCOR (Homo sapiens) (UniProt Q6W2J9)
[2] = molecular target: DOT1L 7-mer peptide (Homo sapiens) (UniProt Q8TEK3); experiment: fluorescence polarization

UniProt Q9HC52, sequence (Q9HC52 whole entry A335V): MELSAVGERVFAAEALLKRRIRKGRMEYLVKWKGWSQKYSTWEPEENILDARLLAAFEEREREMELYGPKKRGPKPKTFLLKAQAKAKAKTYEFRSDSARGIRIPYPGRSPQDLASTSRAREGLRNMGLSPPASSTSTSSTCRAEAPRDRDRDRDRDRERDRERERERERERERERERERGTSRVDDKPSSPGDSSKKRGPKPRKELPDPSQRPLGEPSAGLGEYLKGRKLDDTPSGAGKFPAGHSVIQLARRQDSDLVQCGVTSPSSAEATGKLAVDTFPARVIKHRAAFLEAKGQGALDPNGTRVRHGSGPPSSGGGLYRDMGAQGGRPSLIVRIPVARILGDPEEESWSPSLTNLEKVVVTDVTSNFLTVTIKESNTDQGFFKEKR
UniProt Q6W2J9, sequence (Q6W2J9 whole entry): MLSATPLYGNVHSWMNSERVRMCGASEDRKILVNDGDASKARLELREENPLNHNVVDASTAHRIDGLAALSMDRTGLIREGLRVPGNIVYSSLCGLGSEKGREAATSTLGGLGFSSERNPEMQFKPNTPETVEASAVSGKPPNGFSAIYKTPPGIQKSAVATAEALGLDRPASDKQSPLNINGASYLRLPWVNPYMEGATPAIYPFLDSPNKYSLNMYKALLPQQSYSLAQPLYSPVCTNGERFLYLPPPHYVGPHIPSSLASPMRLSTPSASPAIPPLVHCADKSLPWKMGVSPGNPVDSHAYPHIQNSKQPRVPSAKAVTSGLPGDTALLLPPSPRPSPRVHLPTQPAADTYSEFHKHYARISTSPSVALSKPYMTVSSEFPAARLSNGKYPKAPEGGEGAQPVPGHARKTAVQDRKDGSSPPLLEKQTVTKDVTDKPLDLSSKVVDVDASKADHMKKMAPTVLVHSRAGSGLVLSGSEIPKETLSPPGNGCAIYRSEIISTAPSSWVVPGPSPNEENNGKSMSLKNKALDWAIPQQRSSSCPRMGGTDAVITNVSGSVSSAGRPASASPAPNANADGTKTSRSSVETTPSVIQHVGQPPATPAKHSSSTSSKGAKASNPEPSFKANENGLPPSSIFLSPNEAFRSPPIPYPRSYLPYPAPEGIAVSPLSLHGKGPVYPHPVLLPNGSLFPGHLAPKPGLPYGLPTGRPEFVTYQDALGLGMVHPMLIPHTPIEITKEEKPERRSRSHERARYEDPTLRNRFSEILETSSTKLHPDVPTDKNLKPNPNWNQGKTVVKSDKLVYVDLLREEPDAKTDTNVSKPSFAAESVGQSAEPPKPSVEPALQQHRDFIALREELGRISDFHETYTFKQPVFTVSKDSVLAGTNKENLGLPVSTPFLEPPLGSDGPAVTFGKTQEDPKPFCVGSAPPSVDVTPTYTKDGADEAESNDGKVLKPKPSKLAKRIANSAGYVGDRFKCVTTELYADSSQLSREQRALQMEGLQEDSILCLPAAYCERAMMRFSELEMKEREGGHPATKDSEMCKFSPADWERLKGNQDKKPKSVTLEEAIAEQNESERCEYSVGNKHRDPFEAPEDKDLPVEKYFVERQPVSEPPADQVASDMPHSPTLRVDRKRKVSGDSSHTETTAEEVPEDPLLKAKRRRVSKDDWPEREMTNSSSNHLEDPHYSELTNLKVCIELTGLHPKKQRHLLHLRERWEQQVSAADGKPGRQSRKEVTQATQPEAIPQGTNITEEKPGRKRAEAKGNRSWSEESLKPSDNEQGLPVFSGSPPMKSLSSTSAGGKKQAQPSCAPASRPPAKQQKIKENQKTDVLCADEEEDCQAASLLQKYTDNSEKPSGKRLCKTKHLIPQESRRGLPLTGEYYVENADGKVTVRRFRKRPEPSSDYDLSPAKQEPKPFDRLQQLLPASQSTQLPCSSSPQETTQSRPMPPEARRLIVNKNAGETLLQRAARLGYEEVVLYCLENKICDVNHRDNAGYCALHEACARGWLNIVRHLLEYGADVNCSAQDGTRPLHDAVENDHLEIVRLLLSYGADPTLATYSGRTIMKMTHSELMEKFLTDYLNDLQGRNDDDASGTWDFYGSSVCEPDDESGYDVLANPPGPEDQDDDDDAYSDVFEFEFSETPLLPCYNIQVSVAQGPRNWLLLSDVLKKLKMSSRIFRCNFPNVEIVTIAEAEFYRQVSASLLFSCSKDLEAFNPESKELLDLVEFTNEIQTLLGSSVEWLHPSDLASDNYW

- Kd [1]: 19 nM
- Kd (CBX8 (Homo sapiens)): 12 nM
- Kd (BCOR (Homo sapiens)): > 3000 nM
- Ki [2]: 160 nM
Substance: MLLT3 (AF9) AHD (from UniProt P42568)
